The target of this test is wild-type (WT) RBD of the SARS-CoV-2 spike protein (SARS-CoV-2, UniProt P0DTC2). Kind of test: ITC.

B1: REGN-10987 ScFv (scFv, V domains shown)
VH: QVQLVESGGGVVQPGRSLRLSCAASGFTFSNYAMYWVRQAPGKGLEWVAVISYDGSNKYYADSVKGRFTISRDNSKNTLYLQMNSLRTEDTAVYYCASGSDYGDYLLVYWGQGTLVTVSS
VL: QSALTQPASVSGSPGQSITISCTGTSSDVGGYNYVSWYQQHPGKAPKLMIYDVSKRPSGVSNRFSGSKSGNTASLTISGLQSEDEADYYCNSLTSISTWVFGGGTKLTVL
For orientation: Kd means the constant that tells how readily two partners part at equilibrium. For B1, binding was put at a Kd of 34.3 ± 8.1 nM.

B2: LY-CoV555 ScFv (scFv, V domains shown)
VH: QVQLVQSGAEVKKPGSSVKVSCKASGGTFSNYAISWVRQAPGQGLEWMGRIIPILGIANYAQKFQGRVTITADKSTSTAYMELSSLRSEDTAVYYCARGYYEARHYYYYYAMDVWGQGTAVTVSS
VL: not shown
The molecule B2 came in with a Kd of 3.8 ± 1.9 nM.
